Blank lines part the entries; values can stand above or below the sequence they belong to.
Tests used:
HLA-B*08:01 = assay: IEDB peptide-MHC binding, purified MHC/competitive/radioactivity; filed as Kd, often an IC50 or EC50 that approximates it; ≥ and ≤ were set here for values at or beyond the usual limits of such assays
HLA-A*02:01 [1] = assay: IEDB peptide-MHC binding, purified MHC/competitive/fluorescence; ≥ and ≤ were set here for values at or beyond the usual limits of such assays
HLA-A*30:01 = assay: IEDB peptide-MHC binding, purified MHC/competitive/radioactivity; filed as Kd, often an IC50 or EC50 that approximates it; ≥ and ≤ were set here for values at or beyond the usual limits of such assays
HLA-A*01:01 = assay: as above
HLA-A*30:02 = assay: as above
HLA-A*26:01 = assay: as above
HLA-A*02:01 [2] = assay: IEDB peptide-MHC binding, purified MHC/direct/fluorescence; filed as Kd, often an IC50 or EC50 that approximates it; ≥ and ≤ were set here for values at or beyond the usual limits of such assays
HLA-A*69:01 = assay: as above
HLA-A*24:02 = assay: IEDB peptide-MHC binding, purified MHC/competitive/radioactivity; filed as Kd, often an IC50 or EC50 that approximates it; ≥ and ≤ were set here for values at or beyond the usual limits of such assays
HLA-A*33:01 = assay: as above; settings: source organism: Dengue virus 3 Martinique/1243/1999
HLA-A*68:01 = assay: as above; settings: source organism: Dengue virus 3 Martinique/1243/1999
HLA-A*23:01 = assay: as above
HLA-A*02:02 = assay: as above
HLA-A*02:06 = assay: as above
HLA-A*02:03 = assay: as above
[3] = source organism: Dengue virus 2 Jamaica/1409/1983
[4] = source organism: Zaire ebolavirus
[5] = source organism: Dengue virus 3 Martinique/1243/1999
[6] = source organism: Vaccinia virus WR
[7] = source organism: Dengue virus 1 Brazil/97-11/1997
[8] = source organism: Sudan ebolavirus
[9] = source organism: Dengue virus 4 Philippines/H241/1956
[10] = source organism: Escherichia coli
[11] = source organism: Brucella melitensis
[12] = source organism: Salmonella enterica
[13] = source organism: SARS coronavirus Tor2
[14] = source organism: Camelpox virus M-96

Sequence: MDLEKRHVL
Kd (HLA-B*08:01; [3]): 68 nM

Sequence: QVSDVDKLV
IC50 (HLA-A*02:01 [1]; [4]): ≥ 70700 nM

Sequence: SISIKLTDS
IC50 (HLA-A*02:01 [1]; source organism: Vaccinia virus Copenhagen): ≥ 107000 nM

Sequence: VMKIGIGVLL
Kd (HLA-B*08:01; [5]): 516 nM

Sequence: KNISGQSPA
IC50 (HLA-A*02:01 [1]; [4]): ≥ 228000 nM

Sequence: TMGVLCLAIL
Kd (HLA-B*08:01; [5]): 6430 nM

Sequence: KALSKLISK
Kd (HLA-A*30:01; [6]): 70 nM

Sequence: VLLNAPSEA
IC50 (HLA-A*02:01 [1]; source organism: Human alphaherpesvirus 1 strain 17): 19 nM

Sequence: GTVLVQVKY
Kd (HLA-A*01:01; [7]): 1240 nM
Kd (HLA-A*30:02; [7]): 5110 nM

Sequence: SSAMVQVHS
IC50 (HLA-A*02:01 [1]; [4]): ≥ 595000 nM

Sequence: SVKINFEFV
Kd (HLA-B*08:01; [6]): 105 nM

Sequence: NLTSTWVTY
Kd (HLA-A*01:01; [5]): 1710 nM

Sequence: KIRPTRSVY
Kd (HLA-A*30:01; [6]): 7.24 nM

Sequence: TVRDGQLEV
Kd (HLA-A*30:01; [6]): 12.8 nM

Sequence: TAQEQHNAA
IC50 (HLA-A*02:01 [1]; [8]): 27500 nM

Sequence: DLVLFDLDE
IC50 (HLA-A*02:01 [1]; [4]): ≥ 425000 nM

Sequence: TLGRNKRPRL
Kd (HLA-B*08:01; source organism: Dengue virus 3 Sri Lanka/1266/2000): 395 nM

Sequence: ELEPPFGDSY
Kd (HLA-A*01:01; [9]): 117 nM
Kd (HLA-A*26:01; [9]): 1320 nM

Kd (HLA-A*02:01 [2]; [10]): 6.3 nM
Kd (HLA-A*69:01; [10]): 974 nM
Sequence: GLLASAPGI

Sequence: WMDLLRALI
Kd (HLA-A*01:01; [9]): 9950 nM

Sequence: RYLRDQQLL
Kd (HLA-A*24:02; source organism: HIV-1 M:B_ARV2/SF2): 30 nM

Sequence: VDRKGKVVGL
Kd (HLA-B*08:01; [3]): 6320 nM

Sequence: DVKKDLISY
Kd (HLA-A*26:01; [3]): 369 nM

Sequence: ETDLNQWMV
Kd (HLA-A*02:01 [2]; [11]): 163 nM
Kd (HLA-A*69:01; [11]): 0.8 nM

Sequence: LAEAIFKLTY
Kd (HLA-A*01:01; [3]): 1510 nM

Sequence: SALYSYASA
Kd (HLA-A*30:01; [6]): 36.7 nM

Sequence: QIDNFSLGV
Kd (HLA-A*01:01; [3]): 661 nM

Sequence: EVKTCTWPK
Kd (HLA-A*33:01): 8.54 nM
Kd (HLA-A*68:01): 25.2 nM
Kd (HLA-A*30:01; [5]): 9340 nM

Sequence: GKLGLITNT
IC50 (HLA-A*02:01 [1]; [4]): ≥ 231000 nM

Sequence: HFQRALIFIL
Kd (HLA-B*08:01; [3]): 1730 nM

Sequence: EWITDFVGKT
Kd (HLA-A*26:01; source organism: Dengue virus 3 Singapore/8120/1995): ≥ 28200 nM

Sequence: CIKSHSVSL
Kd (HLA-B*08:01; [6]): 2.3 nM

Sequence: WTMKIGIGIL
Kd (HLA-B*08:01; [7]): 342 nM

Sequence: SAKYINSSI
Kd (HLA-B*08:01; [6]): 137 nM

Sequence: MWKQITNEL
Kd (HLA-A*23:01; [9]): 144 nM

Sequence: RTYSSSIIA
Kd (HLA-A*30:01; [6]): 49.8 nM

Sequence: LLEQLIENI
Kd (HLA-A*02:02; [6]): 702 nM
Kd (HLA-A*02:06; [6]): 539 nM
Kd (HLA-A*02:03; [6]): 1960 nM

Sequence: AIFNNRNLAA
Kd (HLA-A*02:02; [6]): 450 nM
Kd (HLA-A*02:06; [6]): 774 nM
Kd (HLA-A*02:03; [6]): 103 nM

Sequence: SLNTKFKTL
Kd (HLA-B*08:01; [6]): 8.68 nM

Sequence: RTPQDNQLTY
Kd (HLA-A*30:02; [3]): 1.02 nM

Sequence: KTHTLWSNG
Kd (HLA-A*30:01; [9]): 81.4 nM

Sequence: WFVERNMVI
Kd (HLA-A*23:01; [5]): 340 nM

Sequence: AIDPRRIVA
Kd (HLA-A*02:01 [2]; [12]): ≥ 20000 nM
Kd (HLA-A*69:01; [12]): ≥ 20000 nM

Sequence: TFKNAHAKK
Kd (HLA-A*30:01; [5]): 111 nM

Sequence: SGALWDVPSP
Kd (HLA-A*30:01; [9]): 11000 nM

Sequence: DMLLNVQTLI
Kd (HLA-A*02:02; [6]): 41.6 nM
Kd (HLA-A*02:06; [6]): 291 nM
Kd (HLA-A*02:03; [6]): 161 nM

Sequence: FQESFYEDIA
Kd (HLA-A*02:02; [6]): 2560 nM
Kd (HLA-A*02:06; [6]): 303 nM
Kd (HLA-A*02:03; [6]): 555 nM

Sequence: IIGTNGNHM
IC50 (HLA-A*02:01 [1]; [8]): ≥ 144000 nM

Sequence: FVDEFYAYL
Kd (HLA-A*02:02; [13]): 0.0886 nM
Kd (HLA-A*02:06; [13]): 0.36 nM
Kd (HLA-A*02:03; [13]): 2.62 nM

Sequence: VLEKKVCAI
Kd (HLA-A*02:02; [6]): 14400 nM
Kd (HLA-A*02:06; [6]): 3390 nM
Kd (HLA-A*02:03; [6]): 2310 nM

Sequence: IKRKLRTLIL
Kd (HLA-B*08:01; [7]): 5800 nM

Sequence: AIKRRLRTL
Kd (HLA-B*08:01; [5]): 9.67 nM

Sequence: SPKRLATAI
Kd (HLA-B*08:01; [5]): 14.1 nM

Sequence: IMECSRMLDT
Kd (HLA-A*02:02; [6]): 5240 nM
Kd (HLA-A*02:06; [6]): ≥ 69800 nM
Kd (HLA-A*02:03; [6]): 7200 nM

Sequence: EIRGVLPEET
Kd (HLA-A*02:02; [6]): 9600 nM
Kd (HLA-A*02:06; [6]): ≥ 20100 nM
Kd (HLA-A*02:03; [6]): 4870 nM

Sequence: PMIIGEPIIV
Kd (HLA-A*02:02; [6]): ≥ 70000 nM
Kd (HLA-A*02:06; [6]): ≥ 69800 nM
Kd (HLA-A*02:03; [6]): 8840 nM

Sequence: TLNTLITLIL
Kd (HLA-A*02:02; [6]): 150 nM
Kd (HLA-A*02:06; [6]): 826 nM
Kd (HLA-A*02:03; [6]): 7.09 nM

Sequence: ALKRRLRTL
Kd (HLA-B*08:01; [9]): 1.89 nM

Sequence: VMKRYSAPFE
Kd (HLA-A*30:01; [9]): 5920 nM

Sequence: LLSKNTFYL
Kd (HLA-A*02:01 [2]; [14]): 15.5 nM
Kd (HLA-A*69:01; [14]): 536 nM

Sequence: AYQHALNEL
Kd (HLA-A*23:01; [9]): 2340 nM
Kd (HLA-A*24:02; [9]): 199 nM

Reference: the Immune Epitope Database (IEDB)
